Results taken from patent US12060408B2, “Screening assays, modulators and modulation of activation of Receptor for Advanced Glycation End-products (RAGE)” (Monash University, priority 2017, dated 2024).
Entries after “also recorded” stand apart in the source; their conditions may differ.

Tests used:
Type in all cases: cell-based
RAGE [1] = target: T1, RAGE (Homo sapiens, UniProt Q15109); assay: Ang II-induced pro-inflammatory gene expression in human aortic endothelial cells (HAEC); conditions: HAECs; 1 μM, 30 minutes before Ang II; FIG. 13G
T1 construct: RAGE-AT1R—CHO cells expressing both full length RAGE and AT1R; expressed in transfected cells
Method: To confirm the applicability of inhibition strategies to human tissues, additional experiments were undertaken in primary aortic endothelial cells from humans (Lonza). HAECs were grown in EGM-2 media. […]

RAGE [2] = target: T1, RAGE; assay: S100A8/A9-induced pro-inflammatory signalling in RAGE-AT1R-CHO cells; conditions: 1 hour pre-treatment, 1 μg/mL, S100A8/A9 5 ng/ml, FIG. 6A
Method: (§1) Additional experiments were conducted in the presence and absence of a 1 hour pre-treatment with a neutralizing antibody to RAGE (RAGEab; R&D systems; 1 μg/mL) or soluble RAGE22-331 (sRAGE; 1 μg/mL) prior to exposure to 1 μM Ang II or 5 ng/ml of the RAGE ligand, S100A8/A9.
(§2) To confirm the applicability of inhibition strategies to human tissues, additional experiments were undertaken in primary aortic endothelial cells from humans (Lonza). HAECs were grown in EGM-2 media. In each case cells were treated with mCherry-TAT (control), TAT-mCherry-RAGE362-404 (wild type), or TAT-mCherry-S391A-RAGE362-404 at a dose of 0.4 ng/ml for 30 min prior to treatment with either Ang II (1 μM), or S100A8/A9 (2 μg/ml; R&D systems) for 2h.

RAGE [3] = target: T1, RAGE; assay: Ang II-induced pro-inflammatory signalling (p65-NFκB expression) in AT1R-CHO / RAGE-AT1R-CHO cells; conditions: RAGE-AT1R-CHO cells; 1 hour pre-treatment, 1 μg/mL; 1 μM Ang II; FIG. 6A
RAGE [4] = target: T2, RAGE (Mus musculus, UniProt Q62151); assay: Ang II-induced pro-inflammatory signalling in PMAEC; conditions: 1 hour pre-treatment, 1 μg/mL, 1 μM Ang II, FIG. 6B
T2 construct: in murine SVEC that are endogenously replete in RAGE expression; host or cells: Svec4-10 mouse endothelial cells
Method: as §1
(§3) Additional experiments were conducted in the presence and absence of a 1 hour pre-treatment with a pseudo-substrate for PKCζ (iPKCζ, 5 μM, Tocris).
as §2

RAGE [5] = target: T2, RAGE; assay: S100A8/A9-induced pro-inflammatory signalling in PMAEC; conditions: 1 hour pre-treatment, 1 μg/mL, S100A8/A9 5 ng/ml, FIG. 6C
Method: as §1, §3, §2

CCR5 = target: T3, CCR5 (Homo sapiens, UniProt P51681); assay: Receptor-HIT BRET, β-arrestin2/Venus with RAGE/Rluc8 and CCR5
T3 construct: expressed in transfected cells; host or cells: HEK293FT, transient
Source text: Bioluminescence Resonance Energy Transfer (BRET)
BRET is an established technology for studying protein-protein proximity in live cells, particularly involving GPCRs (Pfleger and Eidne, 2006). One protein of interest was linked to a bioluminescent donor enzyme, Rluc8, a variant of Renilla luciferase, and a second linked to an acceptor fluorophore, Venus, a variant of green fluorescent protein. If in close proximity (<10 nm), energy resulting from the rapid oxidation of a cell-permeable coelenterazine substrate by the donor can transfer to the acceptor, which in turn fluoresces at a longer characteristic wavelength.
Plasmids were transiently co-expressed in human embryonic kidney (HEK) 293FT cells and BRET measurements taken at 37° C. using a POLARstar Omega or LUMIstar plate reader (BMG Labtech, Mornington, Victoria, Australia) with 460-490 nm (‘donor emission’) and 520-550 nm (‘acceptor emission’) filters, or a VICTOR Light plate reader (Perkin Elmer, Glen Waverley, Victoria, Australia) with 400-475 nm (‘donor emission’) and 520-540 nm (‘acceptor emission’) filters, or a CLARIOstar plate reader (BMG Labtech, Mornington, Victoria, Australia) with 420-480 nm (‘donor emission’) and 520-620 nm (‘acceptor emission’) filters. […]
For BRET kinetic assays, the final pre-treatment reading is presented at the zero time point (time of ligand/vehicle addition). […]

T1 sequence (Q15109 23-404): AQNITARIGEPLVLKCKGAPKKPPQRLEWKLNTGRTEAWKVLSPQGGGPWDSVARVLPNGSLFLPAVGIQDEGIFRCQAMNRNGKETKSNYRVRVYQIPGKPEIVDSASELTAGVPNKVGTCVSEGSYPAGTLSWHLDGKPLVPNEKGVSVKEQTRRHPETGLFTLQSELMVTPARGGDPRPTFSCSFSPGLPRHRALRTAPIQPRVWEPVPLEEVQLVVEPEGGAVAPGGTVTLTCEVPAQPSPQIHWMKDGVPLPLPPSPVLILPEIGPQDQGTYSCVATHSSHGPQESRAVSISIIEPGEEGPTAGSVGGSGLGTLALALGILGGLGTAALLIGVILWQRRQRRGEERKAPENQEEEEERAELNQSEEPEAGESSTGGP
T3 sequence (P51681 whole entry): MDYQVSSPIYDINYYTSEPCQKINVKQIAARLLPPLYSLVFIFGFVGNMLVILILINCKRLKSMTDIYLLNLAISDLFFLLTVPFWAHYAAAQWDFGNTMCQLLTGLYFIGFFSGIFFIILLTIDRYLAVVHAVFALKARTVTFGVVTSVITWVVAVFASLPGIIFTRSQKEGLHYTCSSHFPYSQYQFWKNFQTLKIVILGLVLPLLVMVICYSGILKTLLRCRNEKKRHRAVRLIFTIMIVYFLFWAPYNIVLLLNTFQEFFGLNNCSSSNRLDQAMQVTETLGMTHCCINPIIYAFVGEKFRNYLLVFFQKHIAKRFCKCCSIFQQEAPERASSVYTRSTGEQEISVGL
T3 sequence (P32121 whole entry partner): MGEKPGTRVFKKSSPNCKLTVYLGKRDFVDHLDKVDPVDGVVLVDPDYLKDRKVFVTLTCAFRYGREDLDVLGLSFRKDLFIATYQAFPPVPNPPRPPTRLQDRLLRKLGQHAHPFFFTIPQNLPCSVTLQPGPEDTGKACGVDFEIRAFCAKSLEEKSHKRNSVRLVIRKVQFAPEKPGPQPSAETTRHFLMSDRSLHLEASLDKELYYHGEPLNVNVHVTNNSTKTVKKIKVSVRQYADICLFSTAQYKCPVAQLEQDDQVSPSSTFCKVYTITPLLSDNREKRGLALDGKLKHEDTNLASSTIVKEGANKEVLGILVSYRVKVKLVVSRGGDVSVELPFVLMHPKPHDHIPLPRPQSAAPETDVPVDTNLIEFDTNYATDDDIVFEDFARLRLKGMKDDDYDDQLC
T2 sequence (Q62151 23-402): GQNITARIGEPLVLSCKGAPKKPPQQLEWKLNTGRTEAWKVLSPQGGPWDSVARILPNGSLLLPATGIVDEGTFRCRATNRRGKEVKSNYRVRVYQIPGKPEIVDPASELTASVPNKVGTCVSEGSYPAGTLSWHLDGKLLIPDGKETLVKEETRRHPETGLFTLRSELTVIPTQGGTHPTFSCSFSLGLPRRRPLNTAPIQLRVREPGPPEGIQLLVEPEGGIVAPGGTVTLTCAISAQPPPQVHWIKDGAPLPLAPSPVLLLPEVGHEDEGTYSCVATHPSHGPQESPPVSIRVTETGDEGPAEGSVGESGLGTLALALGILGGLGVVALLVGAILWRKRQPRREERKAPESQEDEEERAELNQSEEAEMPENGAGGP

CCCCC1=NC2(CCCC2)C(=O)N1Cc1ccc(-c2ccccc2-c2nnn[nH]2)cc1 [irbesartan]
Ang II-induced induction of pro-inflammatory genes (RAGE [1]): inhibitory effect

sRAGE22-331: soluble RAGE decoy with ligand-binding affinity; extracellular ligand-binding V-C1-C2 domains of RAGE
RAGE ligand-dependent induction of pro-inflammatory signalling by S100A8/A9 (RAGE [2]): block
RAGE ligand-independent induction of pro-inflammatory signalling by Ang II (RAGE [3]): do not affect
Ang II-AT1R-dependent induction of pro-inflammatory signalling (RAGE [4]): does not attenuate
pro-inflammatory signalling induced by the RAGE ligand S100A8/A9 (RAGE [5]): able to attenuate

B1: CCL4: chemokine ligand used to activate CCR5 (protein)
chain: APMGSDPPTACCFSYTARKLPRNFVVDYYETSSLCSQPAVVFQTKRSKQVCADPSESWVQEYVYDLELN
recruitment of βarrestin2/Venus to CCR5/Rluc8 (CCR5; control): recruitment
recruitment of β-arrestin2/Venus proximal to RAGE/Rluc8 (CCR5; in the presence of CCR5): particularly weak recruitment; also recorded: Lack of
